Assay results from US20120100139A1 (APTEVO RESEARCH AND DEVELOPMENT, published 2012).

T1: CD86-mIgG (Ancell, Inc) (UniProt P42081 24-247, limits assumed)
T1 construct: Bought reagent
T1 sequence (looked up): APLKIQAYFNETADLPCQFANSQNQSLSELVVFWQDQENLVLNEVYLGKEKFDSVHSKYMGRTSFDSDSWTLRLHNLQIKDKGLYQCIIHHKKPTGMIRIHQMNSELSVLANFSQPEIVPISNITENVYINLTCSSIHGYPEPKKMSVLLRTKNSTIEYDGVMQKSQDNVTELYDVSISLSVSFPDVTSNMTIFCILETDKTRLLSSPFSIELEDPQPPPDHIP

B1: FUN1-21 humanized FUN1 SMIP (Fc fusion)
chain: QVQLVQSGAEVKKPGASVKVSCKASGYTFTDYNMNWVRQAPGQGLEWMGNIDPYYGGTSYNQKFKGRVTMTRDTSISTAYMELSRLRSDDTAVYYCARWDYRYDDGRAYYVMDFWGQGTTVTVSSGGGGSGGGGSGGGGSGGGGSDIVMTQSPDSLAVSLGERATINCKSSQSVLYSSNQKNYLAWYQQKPGQPPKLLIYWASTRESGVPDRFSGSGSGTDFTLTISSLQAEDVAVYYCHQYLYSWTFGQGTKLEIKRLEPKSSDKTHTCPPCPAPEAAGAPSVFLFPPKPKDTLMISRTPEVTCVVVDVSHEDPEVKFNWYVDGVEVHNAKTKPREEQYNSTYRVVSVLTVLHQDWLNGKAYACAVSNKALPAPIEKTISKAKGQPREPQVYTLPPSRDELTKNQVSLTCLVKGFYPSDIAVEWESNGQPENNYKTTPPVLDSDGSFFLYSKLTVDKSRWQQGNVFSCSVMHEALHNHYTQKSLSLSPG
notes: SMIP: scFv-hinge-Fc single chain
B2: IL10::3D1 xceptor (Fc fusion)
chain: SPGQGTQSENSCTHFPGNLPNMLRDLRDAFSRVKTFFQMKDQLDNLLLKESLLEDFKGYLGCQALSEMIQFYLEEVMPQAENQDPDIKAHVNSLGENLKTLRLRLRRCHRFLPCENKSKAVEQVKNAFNKLQEKGIYKAMSEFDIFINYIEAYITMKIRNLEPKSSDKTHTCPPCPAPEAAGAPSVFLFPPKPKDTLMISRTPEVTCVVVDVSHEDPEVKFNWYVDGVEVHNAKTKPREEQYNSTYRVVSVLTVLHQDWLNGKAYACAVSNKALPAPIEKTISKAKGQPREPQVYTLPPSRDELTKNQVSLTCLVKGFYPSDIAVEWESNGQPENNYKTTPPVLDSDGSFFLYSKLTVDKSRWQQGNVFSCSVMHEALHNHYTQKSLSLSPGNSLFNQEVQIPLTESYSPNSQVQLQQSGPELVRPGESVKISCKGSGYTFTDYAIQWVKQSHAKSLEWIGVINIYYDNTNYNQKFKGKATMTVDKSSSTAYMELARLTSEDSAIYYCARAAWYMDYWGQGTSVTVSSGGGGSGGGGSGGGGSGGGGSDIVLSQSPSSLAVSAGEKVTMSCKSSQSLLNSRTRENYLAWYQQKPGQSPKLLIYWASTRESGVPDRFTGSGSGTDFTLTISSVQAEDLAVYYCTQSYNLYTFGGGTKLEIK
B3: 3D1::IL10 xceptor (Fc fusion)
chain: QVQLQQSGPELVRPGESVKISCKGSGYTFTDYAIQWVKQSHAKSLEWIGVINIYYDNTNYNQKFKGKATMTVDKSSSTAYMELARLTSEDSAIYYCARAAWYMDYWGQGTSVTVSSGGGGSGGGGSGGGGSGGGGSDIVLSQSPSSLAVSAGEKVTMSCKSSQSLLNSRTRENYLAWYQQKPGQSPKLLIYWASTRESGVPDRFTGSGSGTDFTLTISSVQAEDLAVYYCTQSYNLYTFGGGTKLEIKLEPKSSDKTHTCPPCPAPEAAGAPSVFLFPPKPKDTLMISRTPEVTCVVVDVSHEDPEVKFNWYVDGVEVHNAKTKPREEQYNSTYRVVSVLTVLHQDWLNGKAYACAVSNKALPAPIEKTISKAKGQPREPQVYTLPPSRDELTKNQVSLTCLVKGFYPSDIAVEWESNGQPENNYKTTPPVLDSDGSFFLYSKLTVDKSRWQQGNVFSCSVMHEALHNHYTQKSLSLSPGNSLFNQEVQIPLTESYSPNSSPGQGTQSENSCTHFPGNLPNMLRDLRDAFSRVKTFFQMKDQLDNLLLKESLLEDFKGYLGCQALSEMIQFYLEEVMPQAENQDPDIKAHVNSLGENLKTLRLRLRRCHRFLPCENKSKAVEQVKNAFNKLQEKGIYKAMSEFDIFINYIEAYMTMKIRN
notes: anti-CD86 3D1 scFv - Fc - IL10
B4: SEQ ID NO: 328 (Fc fusion)
chain: EPKSSDKTHTCPPCPAPEAAGAPSVFLFPPKPKDTLMISRTPEVTCVVVDVSHEDPEVKFNWYVDGVEVHNAKTKPREEQYNSTYRVVSVLTVLHQDWLNGKAYACAVSNKALPAPIEKTISKAKGQPREPQVYTLPPSRDELTKNQVSLTCLVKGFYPSDIAVEWESNGQPENNYKTTPPVLDSDGSFFLYSKLTVDKSRWQQGNVFSCSVMHEALHNHYTQKSLSLSPGNSLFNQEVQIPLTESYSPNSQVQLQQSGPELVRPGESVKISCKGSGYTFTDYAIQWVKQSHAKSLEWIGVINIYYDNTNYNQKFKGKATMTVDKSSSTAYMELARLTSEDSAIYYCARAAWYMDYWGQGTSVTVSSGGGGSGGGGSGGGGSGGGGSDIVLSQSPSSLAVSAGEKVTMSCKSSQSLLNSRTRENYLAWYQQKPGQSPKLLIYWASTRESGVPDRFTGSGSGTDFTLTISSVQAEDLAVYYCTQSYNLYTFGGGTKLEIK
notes: also called 3D1 PIMS (probably)
B5: FUN1-21 PIMS (Fc fusion)
chain: EPKSSDKTHTCPPCPAPEAAGAPSVFLFPPKPKDTLMISRTPEVTCVVVDVSHEDPEVKFNWYVDGVEVHNAKTKPREEQYNSTYRVVSVLTVLHQDWLNGKAYACAVSNKALPAPIEKTISKAKGQPREPQVYTLPPSRDELTKNQVSLTCLVKGFYPSDIAVEWESNGQPENNYKTTPPVLDSDGSFFLYSKLTVDKSRWQQGNVFSCSVMHEALHNHYTQKSLSLSPGNSLFNQEVQIPLTESYSPNSQVQLVQSGAEVKKPGASVKVSCKASGYTFTDYNMNWVRQAPGQGLEWMGNIDPYYGGTSYNQKFKGRVTMTRDTSISTAYMELSRLRSDDTAVYYCARWDYRYDDGRAYYVMDFWGQGTTVTVSSGGGGSGGGGSGGGGSGGGGSDIVMTQSPDSLAVSLGERATINCKSSQSVLYSSNQKNYLAWYQQKPGQPPKLLIYWASTRESGVPDRFSGSGSGTDFTLTISSLQAEDVAVYYCHQYLYSWTFGQGTKLEIKR
notes: PIMS: humanized FUN1-21 scFv at the carboxy-terminus
B6: FUN1 mAb (parent murine anti-CD86 monoclonal antibody) (antibody, V domains shown)
VH: EVQLQQSGPELEKPGASVKISCKASGYSFTDYNMNWVKQSNGKSLEWIGNIDPYYGGTSYNQKFKGKATLTVDKSSSTAYMQLNSLTSEDSAVYFCARWDYRYDDGRAYYVMDFWGQGTSVTVSS
VL: ELQMTQSPSSLAASAGEKVTMSCKSSQSVLYSSNQKNYLAWYQQKPGQSPKLLIYWASTRESGVPDRFTGSGSGTHFTLTVSSVQAEDLAVYYCHQYLYSWTFGGGTNLEIKR
notes: Murine monoclonal antibody; also called FUN1 antibody
B7: 3D1 SMIP (Fc fusion)
chain: QVQLQQSGPELVRPGESVKISCKGSGYTFTDYAIQWVKQSHAKSLEWIGVINIYYDNTNYNQKFKGKATMTVDKSSSTAYMELARLTSEDSAIYYCARAAWYMDYWGQGTSVTVSSGGGGSGGGGSGGGGSGGGGSDIVLSQSPSSLAVSAGEKVTMSCKSSQSLLNSRTRENYLAWYQQKPGQSPKLLIYWASTRESGVPDRFTGSGSGTDFTLTISSVQAEDLAVYYCTQSYNLYTFGGGTKLEIKLEPKSSDKTHTCPPCPAPEAAGAPSVFLFPPKPKDTLMISRTPEVTCVVVDVSHEDPEVKFNWYVDGVEVHNAKTKPREEQYNSTYRVVSVLTVLHQDWLNGKAYACAVSNKALPAPIEKTISKAKGQPREPQVYTLPPSRDELTKNQVSLTCLVKGFYPSDIAVEWESNGQPENNYKTTPPVLDSDGSFFLYSKLTVDKSRWQQGNVFSCSVMHEALHNHYTQKSLSLSPG
notes: SMIP: murine 3D1 scFv at the N-terminus of a hinge-Fc single chain
B8: FUN1-11 humanized FUN1 SMIP (Fc fusion)
chain: EVQLVQSGAEVKKPGATVKISCKVSGYTFTDYNMNWVQQAPGKGLEWMGNIDPYYGGTSYNQKFKGRVTITADTSTDTAYMELSSLRSEDTAVYYCATWDYRYDDGRAYYVMDFWGQGTTVTVSSGGGGSGGGGSGGGGSGGGGSDIVMTQSPDSLAVSLGERATINCKSSQSVLYSSNQKNYLAWYQQKPGQPPKLLIYWASTRESGVPDRFSGSGSGTDFTLTISSLQAEDVAVYYCHQYLYSWTFGQGTKLEIKRLEPKSSDKTHTCPPCPAPEAAGAPSVFLFPPKPKDTLMISRTPEVTCVVVDVSHEDPEVKFNWYVDGVEVHNAKTKPREEQYNSTYRVVSVLTVLHQDWLNGKAYACAVSNKALPAPIEKTISKAKGQPREPQVYTLPPSRDELTKNQVSLTCLVKGFYPSDIAVEWESNGQPENNYKTTPPVLDSDGSFFLYSKLTVDKSRWQQGNVFSCSVMHEALHNHYTQKSLSLSPG
notes: as for B1

Target: T1, CD86-mIgG (Ancell, Inc)
Test: SPR (BIAcore T100), CD86-mIgG immobilized on CM5; first site
Method: (§1) SPR measurements were performed on a BIAcore™ T100 SPR (Pharmacia Biotech AB, Uppsala) using HBS-EP+ (GE Healthcare) as a running buffer. […] CTLA4-containing constructs were injected for 150 seconds, at a flow rate of 10 μl/min, in a series of concentrations from 4 nM to 10 μM. Dissociation was monitored for 600 seconds, and the surface was either regenerated by injecting 50 mM sodium citrate, 500 mM sodium chloride, pH 5.0, for 60 seconds (wild type CTLA4) or 10 mM glycine, pH 1.7 (L104E A29Y CTLA4). […] Data were analyzed using BiaEvaluation for the T100 software (version 2.0.1, GE Healthcare).
(§2) SPR measurements were performed as listed above, with the following exceptions: HBS-P+ (GE Healthcare) was used as a running buffer; dissociation was monitored for 1200 seconds; and the surface was regenerated by injecting 10 mM glycine, pH 1.7, for 60 seconds.

koff [s⁻¹]	kon [M⁻¹ s⁻¹]	Binder
0.000139	186000	B1
8.3e-05	617000	B2
7.06e-05	974000	B3
2.37e-05	112000	B4
9.1e-05	50000	B5
2.28e-05	129000	B6
4.4e-05	323000	B7
0.00035	13900	B8

Target: T1, CD86-mIgG (Ancell, Inc)
Test: SPR (BIAcore T100), CD86-mIgG immobilized on CM5; second site
Method: as §1, §2

Second Site ka [s⁻¹]	Second Site kd [s⁻¹]	Binder
0.00578	0.0127	B1
0.0124	0.102	B2
0.0094	0.0462	B3
0.00077	0.00377	B4
0.00113	0.00837	B5
0.00278	0.0154	B6
0.0055	0.0276	B7
7.5e-05	1.25e-06	B8

Target: T1, CD86-mIgG (Ancell, Inc)
Test: SPR (BIAcore T100), CD86-mIgG immobilized on CM5; steady-state equilibrium fit
Method: as §1, §2

Kd [nM]	Binder
26.9	B1
35.7	B2
26.5	B3
28	B4
70.9	B5
36	B6
11.7	B7
119	B8
